# Assay results taken from US20050112063A1, “Methods for inhibiting vascular permeability” (priority 2002, published 2005).
# “Also recorded” adds a separate entry of the source.
# B1: endostatin (protein, UniProt P39060 1572-1754, looked up)
# Endostatin: HSHRDFQPVLHLVALNSPLSGGMRGIRGADFQCFQQARAVGLAGTFRAFLSSRLQDLYSIVRRADRAAVPIVNLKDELLFPSWEALFSGSEGPLKPGARIFSFDGKDVLRHPTWPQKSVWHGSDPNGRRLTESYCETWRTEAPSATGQASSLLGGRLLGQSAASCHHAYIVLCIENSFMTASK
# modifications: Endostatin
# notes: antiangiogenic factor; human endostatin used on BCE cells
# How the values were obtained:
# [1] = test system: Bovine adrenal capillary endothelial cells; assay: BCE proliferation assay; format: cell-based; conditions: challenged with bFGF, 72 h; data not shown
# Protocol: Bovine adrenal capillary endothelial cells were seeded on gelatinized plates (15,000/well). Following 24 h incubation, cells were challenged with free and conjugated TNP-470, and bFGF (1 ng/ml) was added to the medium. Cells were counted after 72 h.
# lungs = assay: IL-2 induced pulmonary edema, relative weight of the lungs; format: in vivo; conditions: 3 days treatment, edema induced with IL-2 i.m. (FIG. 12)
# [2] = test system: A2058 human melanoma-bearing mice; assay: Miles assay on tumor-bearing mice (tumor vessel permeability); format: in vivo; conditions: 30 mg/kg/day for three days
# Protocol: One of the problems with angiogenesis-dependent diseases is increased vessel permeability (due to high levels of VPF) which results in edema and loss of proteins. A decrease in vessel permeability is beneficial in those diseases. We have found, using the Miles assay ([…], et al., Cancer Res, 56:172-181 (1996)), that free and bound TNP-470 block permeability. Briefly, a dye, Evans Blue (1% in PBS), was injected i.v. to anesthesized mice. After 10 min, human recombinant VEGF165 (50 ng/50 μl) was injected intradermally into the back skin. Leakage of protein-bound dye was detected as blue spots on the underside of the back skin surrounding the injection site. After 20 min mice were euthanized. Then, the skin was excised, left in formamide for 5 days to be extracted and the solution read at 620 nm. Putative angiogenesis inhibitors such as free and conjugated TNP-470 were injected daily 3 days (30 mg/kg/day) prior to the VEGF challenge. The same was repeated on tumor-bearing mice to evaluate the effect of angiogenesis inhibitors on tumor vessel permeability.
# [3] = test system: Aortic arches from day-14 chick embryos; assay: Chick aortic ring assay; format: cell-based
# Protocol: Aortic arches were dissected from day-14 chick embryos and cut into cross-sectional fragments, everted to expose the endothelium, and explanted in Matrigel. When cultured in serum-free MCDB-131 medium, endothelial cells outgrow and three-dimensional vascular channel formation occurred within […]. Free and conjugated TNP-470 were added to the culture.
# Mice [4] = assay: Miles assay (induced vessel permeability); format: in vivo
# Protocol: One of the problems with angiogenesis-dependent diseases is increased vessel permeability (due to high levels of VPF) which results in edema and loss of proteins. A decrease in vessel permeability is beneficial in those diseases. […] Briefly, a dye, Evans Blue (1% in PBS), was injected i.v. to anesthesized mice. After 10 min, human recombinant VEGF165 (50 ng/50 μl) was injected intradermally into the back skin. Leakage of protein-bound dye was detected as blue spots on the underside of the back skin surrounding the injection site. After 20 min mice were euthanized. Then, the skin was excised, left in formamide for 5 days to be extracted and the solution read at 620 nm. Putative angiogenesis inhibitors such as free and conjugated TNP-470 were injected daily 3 days (30 mg/kg/day) prior to the VEGF challenge. The same was repeated on tumor-bearing mice to evaluate the effect of angiogenesis inhibitors on tumor vessel permeability.
# Nude mice = assay: Evans Blue dye extravasation in skin after intradermal PAF; format: in vivo
# Protocol: (§1) The antiangiogenic factor (endostatin) was injected intraperitoneally to FVB/NJ mice for 4 days. Immediately after the last injection, mice were anasthesized and received intravenous injection of 100 μl Evans Blue dye (1% in PBS). Subsequently, different amounts of VEGF165, VEGF121 or saline were injected intradermaly. After 20 minutes, mice were sacrificed and skin flap from the back was removed and photographed. Skin samples from the injection sites were excised and incubated in formamide for 5 days in order to extract the dye and O.D. was measured at 620 nm. […] Quantitative analysis of Evans Blue dye extravasation (FIG. 1) confirmed the lower skin capillary permeability of the antiangiogenic factor-treated mice and indicated the weak permeability-inducing effect of VEGF in these mice.
# In order to test if the effects of the antiangiogenic factor (endostatin) on vascular permeability is VEGF-specific, we have tested the effects of intradermal injection of platelet-activating factor (PAF) in Nude mice that were previously injected with the antiangiogenic factor and in control mice, as described above. […] Quantitative analysis of Evans Blue dye extravasation (FIG. 2) confirmed the lower skin capillary permeability of the antiangiogenic factor-treated mice compared with control and the lack of PAF-induced hyperpermeability in these mice. […]
# [5] = test system: Bovine capillary endothelial cells (BCE); assay: Immunostaining of tight junction proteins (β-catenin, occludin, ZO-1); format: cell-based
# Protocol: Bovine capillary endothelial cells (BCE) were cultured in the presence of 0.2, 0.5 and 2 μg/ml human endostatin for three days. The cells were fixed and immunostained with anti-β-catenin, occludin, and ZO-1 antibodies (Zymed Laboratories, CA). The staining was developed using FITC-conjugated secondary antibodies and visualized under fluorescent microscopy. Immunostaining for β-catenin marked the cell borders and was more intense when two cells contacted each other. […] There was no difference in β-catenin staining between 0.5 and 2.0 μg/ml endostatin. […] Similar results were obtained with ZO-1 immunostaining. […] This is the first documentation of the effects of endostatin on tight junctions that may explain, in part, the mechanism of its antiangiogenic activities. Similar experiments were performed in which BCE were incubated in the presence and absence of 0.5 μg/ml endostatin for 3 days followed by stimulation with PAF for 20 minutes. The cells were fixed and immunostained with anti-α-catenin, occludin, and ZO-1 antibodies (Zymed Laboratories, CA), as described above.
# Mice [6] = assay: Swelling of lung tissue in mice injected with micro-encapsulated VEGF-producing cells; format: in vivo; conditions: VEGF producing cells together with endostatin producing cells, 5 days
# From the text: Dilation of the lung tissue may result in lung dysfunction and development of pulmonary hypertension. Mice injected with micro-encapsulated cells producing VEGF (approximately 0.5×10^6 cells per mouse) developed thickened lung parenchyma 5 days after injection. At a higher magnification we observed generation of several cell layers between the alveoli compared with one layer of cells in mice injected with micro-encapsulated control cells or with micro-encapsulated cells producing endostatin (Endost). […] Moreover, treatment with endostatin reduced the number of cell layers between the alveoli and the lungs of mice that were treated with endostatin appeared similar to control mice. Therefore, endostatin appears to block the swelling of lung tissue and may be used for treatment of pulmonary hypertension.
# Humans = assay: Histamine-induced wheal and flare test in skin; format: in vivo; conditions: intradermal histamine
# Protocol: Antiangiogenic treatment has entered into clinical trials recently. Molecules that are tested in phase 1 and 2 clinical trials include endostatin, angiostatin, TNP-470, thalidomide, anti-VEGF antibodies, PTK787, SU-5416, SU-6668 and others. […] Mice that received endostatin for several days had lower diffusion of Evans blue from the skin capillaries in response to intradermal VEGF and PAF injection compared with normal mice. The existing test of histamine-induced wheal and flare in skin can be used in order to test bioactivity of endostatin and other antiangiogenic factors. Intradermal injection of histamine leads to the formation of local adema ([…]) due to blood vessel hyperpermiability. […] This test will serve as an early surrogate marker for the bioactivity of endostatin and other antiangiogenic factors and help to determine the treatment's efficiency in individual patients.
# mice (SCID) = assay: Duration of exposure: Alzet pump, skin vessel permeability with Evans Blue; format: in vivo
# Protocol: In order to test if continuous exposure to the antiangiogenic factor (endostatin) is required to repress blood vessel permeability, mice (SCID) were anesthetized and “Alzet” pumps loaded with the antiangiogenic factor or saline were implanted intraperitoneally. The pumps release 1 μl the antiangiogenic factor per hour. Skin vessel permeability using Evans Blue dye was performed as described above. Saline and the antiangiogenic factor treated mice were examined 2, 3 and 4 days after pump implantation, as described above (FIG. 3). […] In both groups, PAF injection induced higher vessel permeability than saline injection. […] However, in both groups PAF injection induced higher vessel permeability than saline injection. […] Since the tumor vessels are continuously permeabilized and plasma proteins contained within the tumor support its vascularization the anti-permeability effect of the antiangiogenic factor offers a possible mechanism for its anti-tumor activity.
# FVB/NJ mice = assay: Evans Blue dye extravasation in skin after intradermal VEGF; format: in vivo
# Protocol: as §1
# [7] = test system: Bovine capillary endothelial cells (BCE); assay: In vitro diffusion of FITC-dextran through endothelial cell monolayer (Transwells); format: cell-based
# Protocol: The effects of the antiangiogenic factor (endostatin) on skin vessel permeability in vivo were tested in an in vitro diffusion model designed to mimic blood vessel permeability. Bovine capillary endothelial cells (BCE) were seeded in collagen coated inserts of “Transwells” and grown to confluence. The antiangiogenic factor was added every 24 hours. Four days later the inserts were washed with BCE culture medium and the following tracers and permeability regulators were added to the inserts. Half of the inserts received 5 mg/ml FITC-labeled dextran 10 kDa and the other half received 5 mg/ml FITC-labeled dextran 70 kDa. In addition, some inserts received 50 ng/ml VEGF165 or 100 nM PAF. Control inserts received BCE culture medium with fluorescent tracers only. The fluorescence in the lower wells was measured after 10, 20, 30, 45 and 60 minutes by transferring the inserts into new wells.
# In order to follow the kinetic of the diffusion process, the flow of the tracer was calculated as fluorescent counts per minute (FIGS. 5 and 6). […] In contrast, the flow in control cells was constant and was lower than that observed in PAF and VEGF165-treated cells.
molecule,measurement,setting,value
CO[C@@H]1[C@H](OC(=O)NC(=O)CCl)CC[C@]2(CO2)[C@H]1[C@@]1(C)O[C@@H]1CC=C(C)C [TNP-470],BCE cell growth,[1],inhibited
same,pulmonary edema (relative weight of the lungs),lungs,reduces pulmonary edema
same,tumor vessel permeability,[2],decreased
same,concentration that showed efficacy (reduced number and length of vascular sprouts),[3],50 pg/mL
same,"VEGF, PAF and histamine-induced vascular leakage","Mice [4]; Miles assay, compared to control (FIGS. 8A-8E)",prevents
O=C1CCC(N2C(=O)c3ccccc3C2=O)C(=O)N1 (centres unmarked) [Thalidomide],vessel permeability,Mice [4]; FIGS. 9A-9D,no effect
B1,PAF-induced vascular permeability,Nude mice; intradermal PAF,repressed
same,"vascular permeability (skin flaps, Evans Blue)",Nude mice; vs control,inhibits vascular permeability
same,"PAF-induced reduction of staining intensity of β-catenin, occludin and ZO-1","[5]; 0.5 μg/ml for 3 days, then PAF for 20 minutes",not in endostatin-treated cells
same,ZO-1 immunostaining,"[5]; 0.2-2.0 μg/ml, three days",Cells boundaries were only visible in the presence
same,"β-catenin staining, 0.5 versus 2.0 μg/ml",[5]; three days,no difference
same,accumulation of extracellular matrix in lung tissue,Mice [6],no accumulation of extracellular matrix
same,cell layers between the alveoli,Mice [6],fewer cell layers
same,histamine-induced zone of edema,Humans,reduced zone of edema
same,treatment time required to reduce skin vessel permeability,mice (SCID); Alzet pump intraperitoneally,at least 3 days
same,"blood vessel permeability in response to PAF, saline vs treated mice",mice (SCID); day two after pump implantation,no significant difference
same,vessel permeability in saline treated mice compared with treated mice,"mice (SCID); days three and four, saline and PAF injections",significantly higher vessel permeability than in the antiangiogenic factor treated mice
same,Evans Blue dye leakage (skin capillary permeability),"FVB/NJ mice; injected intraperitoneally for 4 days, vs control",overall lower dye leakage than the control
same,induction of hyperpermeability by VEGF injection,"FVB/NJ mice; intradermal VEGF165 or VEGF121, 4 days treatment",minor induction of hyperpermeability
same,flow of the tracer (fluorescent counts per minute),"[7]; 10 kDa and 70 kDa dextrans, vs control cells",significant reduced flow; also recorded: lower than that of control cells
same,course of tracer flow over time,[7]; 60 minutes period,constant flow
same,sum of fluorescent count over 60 minutes,"[7]; 4 days pre-treatment, vs control, VEGF165-treated and PAF-treated cells, 10 kDa and 70 kDa dextran",significantly lower fluorescent counts
same,"reduction in fluorescent counts, 70 kDa compared with 10 kDa dextran",[7]; pre-treated BCE cells,more pronounced in the diffusion of 70 kDa dextran
